Laboratory results reported in the DeepSol protein solubility set.

Test: soluble on expression in E. coli; label from the status in PepcDB or PDB records

Sequence | soluble on expression in E. coli
MAHHHHHHMTFSVKGGSYSSSHPSPAMHPYVSPSLLPQSHGQQAPPSFSLGDEQYVGVPKRVGVDPTKYKTTICRNWEQTGTCAFRGCTFAHGVEELRAPLRPDGHTPVLRPQHISPGSTPPLRASQPPPPPSSGHYTLEQLLDMLYKEVLHQRELVTVHVEANTTLEGMLRREQAQHDASKKQLEEKTQQCELFARELFARNQQLRKAADSSPEIKELLDQWETQLASFSEADVKKDDVFHTATATSSTDDGGDSGKEYESARIEELLRALQR | not soluble
MAHHHHHHMTTMARVDETLARFKGKSPRDSYKQVCGELDVHMQREIYAALPEKPMAWHHIYTLDLEKALLGTKGCMAMLPLITVSTSMRKLSLRSCGLSDEFVIQLCAVLQSHPSLRSVDISDNELVTVYSAPHIISVMRNNSNMVLFDVYNTHVGSNVGDIIAKLGQRNLDNVLHYYEDRYFRMKNLFNYMDADGTGWVVLKSLVLNCPYPVLQEQFVERIATKQPRKRSDNTISINTFLQLVYMNYKTEAEIGTYSNKTIDEPYVFMVANWKQLLYAVERYNARAAAMGDGQGPHPPVQLPDNFHRWRLRDYIITPDDADALVEGAVQLIEHSSAMAEGEPELNESGERAEPDAEVDSDKETAENAAEAAPLVIPITILLRAAKSVLVLPPSVAKPSYSFYTDRDAAYVPEILRNGSRLFSVSRLSCLFSGGASTTGDSASSPDVLQDSADRPHTFSLPASVVKMVVDFFNKEHKKLPTKKQSMIPDSPQTRRDKAMEKAAIPVPTFLSAEFVSDLERVCPRFLADYYSRHALLIEDGTITLQEMVNVLDEMYAQCRIDRIISLADIKAMPDPMKDKSLVSFVTAHFADRDEDISFLEPFNDVVAY | soluble
MAHHHHHHMTVKVASEVSLLPYGEHQGSFRGVVACSNRDDGYFSGENNYVDTSIYTGFRYQCVEYARRFLLLTTGCVFANCGRASEIYAMDHITHVETGAQYTLHRHHNDGTATQKPAPGDIIIYPYHPELTPWGHVGVISFVDDNRVGIAEQNHYFGPFTSPSESYLDGERCVARYAMLTLDEATKTWRIDEPGAMPSAVGWLSYPDAPTREQIHAPFTPLPCAIKVRSTPFDQDDHPFLTHYHLHKIFDIPSGCVRHAYGMRNGTAETLVGATSAAARVLRFTLHLLFHRGRLGPAFRALPTNPLNATLPEGAGASTEACREVDALFKVLAEEDVVNATETTPDRLRQAVATYFDIPVEWVMAMERDFAKGETHMAAVVSFYPNIATDSAALEAFRAARKRSGTWAAPAVGTVPLTTAKASTPVAEEPLTLSYPATVEELPLKNPHDEAWHLATVNFGNARVMTELSQLNKVKQDLTETIALMTPSMRPFISTQYRMDFAGYLKVVEAVYGPRTGFTIVVSDDQPMDGLLRELVSTVQNLCEHVEYPVRIVNEKDLTFVNGKLHATPSAISPEAGSHMTNIAPSGAYDVNFVYALCEWPRILACREATHAALYRAAVDPASDVVFAKPLWSYLCSGAVNVSDDAERAHYSHSPRSPSVRFFDVCRRLYLLASPTQQPKTWDLEVSEYKDSCRRIHVDAETVPMHSPAHLNADSLMINLAGSCYMGHAGGTLSVESENTGIHVGHPAFLMFMFPAD | not soluble
MAHHHHHHMVCRSKRASSFRHRVVHACVTEQRVLPSCRIHVVLRNFSADFSSLSPRCHYTSAGLLLHPSPLPPPSSTSSRLSTSIPPFRFTRAESSAAVFSMSIGTDYLSAMLNYNGCLQERILRRLLIIENETDSLLALRCALVPLQTPTRKRKRHTEPVAAQGTSFNVDVDTTRHRWSTELCEALNDEAAKANCIASLCPPAKERWCAVAAALRRAGHPSFTPYELFTKYKEMHSDSRPFALSEARFVCQYVQEHGGDWQGLCQALRQRLGHVRSPFQVAQQYRQRLRCAFVENRLTSSQLLTLLADLPASPQDRDFAALSVEAQRFTSHKTLQVSPLYLKRELEPLDFAARVPTCHHLYWKLVNLLCNFTLSHPNRLHAFQHRMPFCYQQRSLADLARSLQCEAAELQERVVHALLRLSRPPEALNYEECSKKLFGTVCGAQLIYQISEKLHEKDI | soluble
MAHHHHHHMVLYIIGLGLGDEKDITIKGKELIEKSDVVYLETYTSILFVSKDVLEETYKKSIEEVDRDFAEENCDKILDEAKNKKVSFLVVGDPLCATTHHDIILRAKKKNIDVEIIHNTSIISAIGECGMQLYNFGQIVSIPYFEDNYKPTSYYDKIYINLKNNFHTLCLLDIKVKERTVENIMRNKKIYEPPRFMTINDSIEQLLYCEHIHKKNIITKNTLGIAIIQIGTDNQQIISGDLLTLKDISYNKPLHSLIICAPTLHDIEKEYFDLYHYNNMKK | not soluble
MAHHHHHHMVSDPSFCKKAPSSDLLGSNGRKVPPSFIAPPSSDVFLTSRRKTSFRNKSALTCLGKDVMSVSYGCGMRFRKAVRSGLSVFREAITLTDGGRHEGSHSRTSDSRPPQLSKRSMREIRRRIISPSYLEITSRTSTASSSTLRYIRLDFFKKTRRR | not soluble
MAHHHHHHMVVPVMNMTREPAVDSPENSRKISLAGYPEVAGLFCVTVFKSTLDLEVRDCCGLLTLDGVGKCVELKKFSISNCGMLTNISDLKDCVNLEMLTLSGCKTLRNLTPLKGHRTLSCITISHCERMMELDLEGATNLMQLNISDCEELKDVHVSRCTRLEVIDIHDCVKLEKLHGLTYLRELKTLILAGNRELSAVEGINELINRVEKLSLKNCEKLEDLKFLDFCNFLKEVVVAGSNVTEEKKQELRGKGVRIVNEVKVADG | not soluble
MAHHHHHHMVVVKGTEYYDGRTKNYVDYPITDVLQMVGRAGRPQFDTEGVAQVLCHEPKKGFYRKFLYDPFPVESTLHKQLHVHINAEIVAGTITTRQDAVDYLTWTYLFRRLVKNPSYYGVEDRSPKAVTIFISTLVANVLDELEACGCIASPGDDEEDDVSRKVTGMSAAGGTDDEKDPDALTCTVLGRLCSYYYLSHKTVRYFDAHIGADSSHVDVLKALCEAEEFNELPVRHNEDKLNLVLSQLLPFPINPNNAESPHVKAFLLFQAHFERASLPISDYYTDLKSALDNAVRVVQAMVDITSNNGHLYAALRCMSLLQCMVQGIWWHSSTLLQIPHVTAGMLPVIASRCGNLEHAAQVANSSITALQTLKAVLREDCGLSETQLREAMAAIQGFPLIDVRLCLSRTPDRTSNSGDAEHSDDGSKTAADVTYTLTVHLTRLSVHNKHVVAPHFTKPKDEQYWLVVGNEKTGELIALKRVNRLVNCVELTLSFEWDDEWAEFAEGGAVALSLYVVCDSYVGLDQQYNFSVPVPVDM | soluble
MAHHHHHHMWFGQLVIGPPGSGKSTYVAGVEHILRQINRKLVLINLDPFVENDVYKADVNISDLVDIKKVFCDLGLGPNGTLIYCMEYLLINFDWLEEKLKEHKDHYLLIDTPGQVELYTHNDALRKIVEKMTKMNCRLTSVHIVDSTLCSDNYKYVSALLLSLCSQIHLELPHVNVFSKIDLLKYFRDDLNFPLSYYVEAQNLEQLMLYARYQNESSSGSEGVNMGDDSPSGSLNDRSSCAQSAIKQAIRNDINSGRIKNVRKNYKKFSNKFLKLNEYICETVEDYNMINFALLDIQDKYSVLKLLKIIDGANGFRFSSIYSEYSLFDTYAEAIEYDCDDIQEKIVDVSDEEKEASLSGHPPHG | not soluble
MAHHHHHHMYAGFPRLNVTEAQETVDLDFELTNEKGCVKVTEFPVPKVVNLSFPAVCALLYNARTATSSRNIFGSVIGLQLQDTVEVTDVKTNPSIDIEEDDRMTEEERMERVRKERKLLDADKAIFENMYNQENLDTNVIGQFVVSSARFNPFSTRTMRKLQELHRESLPAILLTYDPFRTGLLGRPHIRAYTPTAAYYKYDSLVSTERGYQRRRSLAQYAKESGITKEGVLHEIPVKLEVDAFHKLNLMNVPPTAVGDSFKAIQSMAVSNYIEALLSSIRNNTDQLKQKLDYEGNVKDNGNVPVGQDAETMLLMKHVRDQTDHLDALCDSALLYSSLLRDL | soluble
MAHHHHHHMYEKTHVTTYPVMGCQISVGTTASRRSKGLNATRSGVDGALTSGTVDGRDPKSTGADNSVSLAYAVPAVKPVTYNDYRGFQVTMVNGTLAKINNICRWLDTALDKREKNGGWCMDVLAESVSSGKMETSFYCESIVQASHHVTHYCGQERANGVEYFAEVHSQQVFEKSAVSRTFDCPSAKFVYNSRFEEIPRQSDITTTQLNKETSDSGIPNGREAMIRYSPTSSEDGGRLNE | not soluble
MAHHHHHHMYRNLFDKLKDGPLKISILGSGNWASAISKVVGTNAKNNYLFENEVRMWIRDEFVNGERMVDIINNKHENTKYLKGVPLPHNIVAHSDLASVINDADLLIFIVPCQYLESVLASIKESESIKIASHAKAISLTKGFIVKKNQMKLCSNYISDFLNIPCSALSGANIAMDVAMENFSEATIGGNDKDSLVIWQRVFDLPYFKINCVNETIEVEICGALKNIITLACGFCDGLNLPTNSKSAIIRNGINEMILFGKVFFQKFNENILLESCGFADIITSFLAGRNAKCSAEFIKSTPKKTWEELENEILKGQKLQGTVTLKYVYHMIKEKNMTNEFPLFTVLHKISFENEDPSSLLKTFMNNKINQLNL | soluble
MAHHHHHHSLSELVIESWRADDKALWEQKIIPAFEAANPGIKVKFNPVPNVNYTPTLWENLKAGKAGDLITCRPFDDSLALFKAGHLAEITEMAGMENFPSFAQAPWQTDSGAQTFCVPMASVIHGFFYNKKIFNELGLSVPQTREQFFTVLDKVKADGRYIPLSMSGSESWVASELGYQNIGPNYWKGEDGRLALINGQEHLDDSQYVKVFEELARWRAYLGEDGELRDYGTSNELFTSGKAALYVAGSWEIAPFTDKVDFGVMRPPVAKQGDGCFFTDHTDIGMGMNPASKNPQAAMAFLQWLTTPEFAELYTNSLPGFFSLSNHFFDVTNPAAREMMEWRDQCDSTIRVATQILSRGQPKLGDELAEVSQAVLVGKMTPTAAAERLEQGLKRWYAPHQTRKAKEQECQCVEPISPTTRLNTLPVVDIAPVVASDPVPPTEATILSEEG | not soluble
MAHHHHHHVDDDDKMVTDQRWLIDKSALVRLTDSPDMEIWSNRIERGLVHITGVTRLEVGFSAECGEIARREFREPPLSAMPVEYLTPRIEDRALEVQTLLADRGHHRGPSIPDLLIAATAELSGLTVLHVDKDFDAIAALTGQKTERLTHRPPSA | soluble
MAHQTGIHATEELKEFFAKARAGSVRLIKVVIEDEQLVLGASQEPVGRWDQDYDRAVLPLLDAQQPCYLLYRLDSQNAQGFEWLFLAWSPDNSPVRLKMLYAATRATVKKEFGGGHIKDELFGTVKDDLSFAGYQKHLSSCAAPAPLTSAERELQQIRINEVKTEISVESKHQTLQGLAFPLQPEAQRALQQLKQKMVNYIQMKLDLERETIELVHTEPTDVAQLPSRVPRDAARYHFFLYKHTHEGDPLESVVFIYSMPGYKCSIKERMLYSSCKSRLLDSVEQDFHLEIAKKIEIGDGAELTAEFLYDEVHPKQHAFKQAFAKPKGPGGKRGHKRLIRGPGENGDDS | soluble
MAHRNTYEAVLHKIQVGSPEDGNGAIRILQLSDLHLEKLSISPDDLYEKLRGEPIDFIALTGDFLDREASIPKLGPYLTALKKLQPAYGMYAVFGNHDYVLQGEPFERLKATLEEHGCIVLQNEMKTITVHGQTVNIIGIDDFYTRRSNMKKAYAGVKDGINIVLTHDPDIVPHMGAYHFDYLLSGHFHGGQIHWPKPYHLAKMSKTLTKRNMIKGYHEWEGKPFYINEGLGQTGVNIRVGSKPEVTLHLLSLPSVAQSETVKAVLEHHHHHH | soluble
MAHRRKFGGGRGEAVAKAVGIKGSALPTVIDATAGLGRDAFVLAAIGCQVRLVERHPVVFLLLQDGLNRAYQDEEIGEMLQQNLHLLNVQHINELDPNSDYADVVYLDPMYPHKQKSALVKKEMRVFQHLVGADLDADELLLPALQLAKKRVVVKRPDYAEFLCGKQPHFSHETKNHRFDIYMGASQCLEHHHHHH | not soluble
